Patent publication US12544447B2, “Nuclease-dendrimer formulations for Covid-19 and broad-spectrum antiviral therapy and prophylaxis” (priority 2020, dated 2026)
Like-named read-outs stand apart in the source and are kept apart here.

Experiments:
[1] = cited from earlier work
[2] = system: HIV; details: published research; cited from earlier work
[3] = system: HCoV-OC43 virus; type: cell-based; details: OC43, HEK293T
[4] = system: HEK293T cells; assay: Cytotoxicity of cationized RNase using HEK293T cells; type: cell-based, human
Experimental: In this example, initially, the cytotoxicity of cationized RNase using HEK293T cells is tested. Next, the highest dose with more than 80% surviving cells is selected for an anti-viral test of a co-treatment of RNase/DNase complexed with a highly cationic molecule dendrimer (the generation 2 poly PAMAM dendrimer described above) to enhance the efficacy of ribonucleases as anti-virus (HCoV-NL63/OC43) agents.
In this set of exemplar experiments, the same methodology, including the cellular compositions, viral samples, and RNase/DNase formulations from Example 1 are utilized in the various experimental combinations shown in FIG. 21.

[5] = Aggregate net charge estimated from published data; type: physicochemical; details: calculated estimates from published data
Source text: To determine the resulting aggregate net charge of each mixture (mildly or highly) cationized RNase A may be fractionated according to net charge by cation-exchange chromatography. Based upon calculated estimates from published data, the aggregate net charge of the mildly cationized RNase obtained from the above methodology is approximately +11 to +13 and the aggregate net charge of the highly cationized RNase obtained from the above methodology is approximately +21 to +23.

[6] = system: OC43 virus; assay: RT-qPCR of cell culture medium for OC43 virus; details: RNase 10 μg/mL, dendrimer 10 μM where present
Experimental: To conduct the RT-qPCR testing, cell culture medium was collected at 3 and 5 days after virus infection with or without mild RNase plus dendrimer treatment for RT-qPCR test. RNA from the infection virus were used for reverse transcriptase (RT) to direct complimentary DNA (cDNA) synthesis. The resulting cDNA was used as templates for the RT-qPCR reaction with a SYBR RT-PCR Kit. Reaction conditions were: 30 minutes RT at 50° C., 15 minutes at 94° C. for inactivation of reverse transcriptase (RT), followed by 40 cycles of 95° C. for 15 seconds, 60° C. for 45 seconds. Finally, conditions of 65° C. for 5 seconds and 95° C. for 5 seconds were used.
Melting curve analysis was performed under the condition of 95° C. for 60 seconds, 40° C. for 60 seconds, 65° C. for 1 second, followed by a slow increase from 65° C. to 95° C. at a rate of 0.07° C. per second.
Note that the limit for this PCR reaction is between 10-100 particles, which is sufficient to detect if a well is infected or has virus present.

Molecule	maximum tolerated dose (MTD) ([1]; intravenously weekly, patients with malignant mesothelioma)	maximum tolerated dose (MTD) ([1]; of skin area, phase one clinical study)	antiviral effect on HIV [2]	effective reduction compared to the control group (TCID50) ([3]; 7.5 μg/ml)	concentration with survival of 80% of the control cells ([4]; FIG. 22)	aggregate net charge [5]	virus detection in medium by RT-qPCR after 3 days ([6]; 3 days)	virus detection in medium by RT-qPCR after 5 days ([6]; 5 days)	effective reduction compared to the control group (TCID50) ([3]; highly cationized formulation)	concentration with 80% survival of control cells, interpolated ([4]; interpolation of experimental results)
ranpiRNase: ribonuclease enzyme found in the oocytes of the northern leopard frog (rana pipiens) (protein, UniProt P22069 1-104, looked up) Protein P-30: QDWLTFQKKHITNTRDVDCDNIMSTNLFHCKDKNTFIYSRPEPVKAICKGIIASKNVLTTSEFYLSDCNVTSRPCKYKLKKSTNKFCVTCENQAPVHFVGVGSC	960 mg/m2	960 μg/m^2	shown antiviral activity against HIV							
mildly cationized RNase: bovine pancreatic RNase A carboxyl groups amidated with ethylenediamine using 10 mg EDC; mixture of diversely modified proteins (protein, UniProt P61823 27-150, looked up, carboxyls amidated with ethylenediamine, mildly cationized, bovine pancreatic RNase A carboxyl groups amidated with ethylenediamine using 10 mg EDC; mixture of diversely modified proteins) Ribonuclease pancreatic: KETAAAKFERQHMDSSTSAASSSNYCNQMMKSRNLTKDRCKPVNTFVHESLADVQAVCSQKNVACKNGQTNCYQSYSTMSITDCRETGSSKYPNCAYKTTQANKHIIVACEGNPYVPVHFDASV				6.8 ×	10000 ng/mL	+11 to +13	detected	detected		
highly cationized RNase: bovine pancreatic RNase A carboxyl groups amidated with ethylenediamine using EDC 80+80+40 mg; mixture of diversely modified proteins (protein, UniProt P61823 27-150, looked up, carboxyls amidated with ethylenediamine, highly cationized, bovine pancreatic RNase A carboxyl groups amidated with ethylenediamine using EDC 80+80+40 mg; mixture of diversely modified proteins) Ribonuclease pancreatic: KETAAAKFERQHMDSSTSAASSSNYCNQMMKSRNLTKDRCKPVNTFVHESLADVQAVCSQKNVACKNGQTNCYQSYSTMSITDCRETGSSKYPNCAYKTTQANKHIIVACEGNPYVPVHFDASV						+21 to +23			negligible	200 to 500 ng/mL
